The target of this data set is T1, propeptide of Rhizomucor miehei lipase (RmL).
T1 chain: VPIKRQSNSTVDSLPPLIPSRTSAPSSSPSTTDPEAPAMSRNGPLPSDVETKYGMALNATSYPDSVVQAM

B1: Rhizomucor miehei lipase (RmL) wild type mature protein (protein)
chain: SIDGGIRAATSQEINELTYYTTLSANSYCRTVIPGATWDCIHCDATEDLKIIKTWSTLIYDTNAMVARGDSEKTIYIVFRGSSSIRNWIADLTFVPVSYPPVSGTKVHKGFLDSYGEVQNELVATVLDQFKQYPSYKVAVTGHSLGGATALLCALDLYQREEGLSSSNLFLYTQGQPRVGDPAFANYVVSTGIPYRRTVNERDIVPHLPPAAFGFLHAGEEYWITDNSPETVQVCTSDLETSDCSNSIVPFTSVLDHLSYFGINTGLCT
As for B1, the lipase hydrolytic activity (4-MU oleate), average slope; incubated with 5 µM TCEP stood at 22 RFU/sec; the lipase hydrolytic activity (4-MU oleate), average slope; incubated with 5 uM TCEP + Model B is 66 RFU/sec; the lipase hydrolytic activity (4-MU oleate), average slope; incubated with 1.35% Savinase + Model B worked out at 143 RFU/sec; the lipase hydrolytic activity (4-MU oleate), average slope; incubated with 2% NaSO2 is 28 RFU/sec. Moreover, the lipase hydrolytic activity (4-MU oleate), average slope; incubated with 2% NaSO2 + Model B is 66 RFU/sec.
